The conditions of series [1]: substrate DTT, data from Hoober et al. 1999, cited from earlier work.
For series [2] the following is noted: substrate GSH, data from Hoober et al. 1999, cited from earlier work.
In series [3] the test system is reduced RNase (rRNase). Particulars: substrate rRNase, data from Hoober et al. 1999, cited from earlier work.
Series [4] has as its system reduced RNase (rRNase). The series is described as follows: Oxidation of reduced RNase by QSOX1. Type of series: biochemical. Here is the method:
(§1) Oxygen electrode assays were performed in duplicate at 25° C. as described in K. L. Hoober, et al., J. Biol. Chem. 271: 30510-30516, 1996. Assays were initiated by the addition of 5 mM DTT or reduced glutathione (GSH). All thiol substrates were standardized with DTNB before use. Reduced RNase was prepared, characterized and stored as described in K. L. Hoober, et al., J. Biol. Chem. 271: 30510-30516, 1996. Assays of the oxidation of reduced RNase were performed as described by K. L. Hoober et al., J. Biol. Chem. 274: 22147-22150.

Series [5] can be described thus: Inhibition of sulfhydryl oxidase activity by EDTA. As to conditions: purified QSOX1 from milk. The series is classed as biochemical.
Series [6] can be described thus: Oxygen electrode assay, oxidation of dithiothreitol by QSOX1. The series is classed as biochemical. Particulars: substrate DTT, 25° C., 50 mM phosphate buffer, pH 7.5, 1 mM EDTA. Here is the method: as §1
Series [7] in a line: Oxygen electrode assay, oxidation of reduced glutathione by QSOX1. Type of series: biochemical. As to conditions: substrate GSH, 25° C., 50 mM phosphate buffer, pH 7.5, 1 mM EDTA. Here is the method:
as §1

A short description of series [8]: Stimulation of sulfhydryl oxidase activity by added ferrous iron. Type of series: biochemical. As to conditions: purified QSOX1 from milk.

Read-outs that look alike come from different tables or passages of the source.

What is called Km is the concentration of substrate that gives half-maximal velocity. A word on the kcat: it is the maximal rate divided by the concentration of active sites.

B1: Egg QSOX1: Avian QSOX1 isolated from egg white; data from Hoober et al. 1999 (protein, UniProt Q8JGM4 43-743, looked up)
Sulfhydryl oxidase 1: RSLYSPSDPLELLGADTAERRLLGSPSAWAVEFFASWCGHCIHFAPTWRALAEDVREWRPAVMIAALDCADEANQQVCADFGITGFPTLKFFRAFSKKAEDGIRIAHPTATVADLRRAIITNLEQSGDAWPPACPPLEPASAEEVRSFFHRNTERYLALIFEQSNSFVGREVALDLLQYENVAVRRVLSSEEELVEKFGVTTFPSAYLLLRNGSFSRLPVHAEARSFYTYYLQTLSGVTRGSYRLNVTGSAINETRALQPAQADRSKVYVADLESTVHYTLRVEAGRPAVLAGAQLAALKCYVATLAKYFPGRPSVQTFLQSLDSWLRNWTEPELPRSALKEAVKNKEDASPAAVLPTNVTWVGCRGSEPHFRGYPCGLWTIFHLLTVQAAQGGPDEELPLEVLNTMRCYVKHFFGCQECAQHFEAMAAKSMDQVKSRREAVLWLWSHHNEVNARLAGGDTEDPQFPKLQWPPPDMCPQCHREERGVHTWDEAAVLSFLKEHFSLGNLYLDHAIPIPMAGEEAAASARLSTAGLREKEEEERKEEEEEGEKETEKPHREGETGRPGSSELRRPSIVRRNPRLRALGEDIVDLDSFSEQHFKSKALRAAGRHRRLSKRDTVALHHDAGWERLQVPESREEEEEGGVLRRSPWLRVLGLGFSRLDVSLCIALYFLSSMCLLGMYTFFRLRTRARKGRPGFPVA
As for B1, the Km in series [1] was 150 µM; in series [2], 20000 µM; with reduced RNase (rRNase) [3] it was 115 µM. Also, the figures for the kcat (in series [1] (thiols oxidized per minute); in series [2] (thiols oxidized per minute); with reduced RNase (rRNase) [3] (thiols oxidized per minute)) were 34.33 s⁻¹, 46.33 s⁻¹ and 20.33 s⁻¹, respectively.

B2: Milk QSOX1: Flavin-dependent quiescin Q6 sulfhydryl oxidase 1 isolated and purified from bovine milk, amino acid sequence SEQ ID NO:1 (protein, listed as Bos taurus)
chain: SALYSSSDPLTLLRADTVRSTVLGSSSAWAVEFFASWCGHCIAFAPTWKALANDVKDWRPALNLAALDCAEETNSAVCRDFNIPGFPTVRFFKAFSKTGSGTTLSVAGADVQTLRERLIDALESHSDTWPPACPPLEPARLEEITGFFARNNEEYLALIFEKEGSYLGREVTLDLSQHQGIAVRRVLNTERDVVNRFGVTNFPSCYLLSRNGSFSRVPALTESRSFYTTYLRKFSGSTRGAVQTTAAPATTSAVAPTVWKVADRSKIYMADLESALHYILRIEVGKFSVLEGQRLVALKKFMAVLAKYFRGRPLVQNFLHSMNDWLKKQQRKKIPYGFFKNALDSRKEGTVIAEKVNWVGCQGSEPHFRGFPCSLWILFHFLTVQAAQEGVDHPQERAKAQEVLQAIRGYVRFFFGCRECAGHFEQMASGSMHRVGSLNSAVLWFWSSHNKVNARLAGAPSEDPQFPKVQWPPRELCSACHNELRGTPVWDLDNILKFLKTHFSPSNIVLDFPSAGPGPWR
For the molecule B2, in the series on reduced RNase (rRNase) [4] (oxidation of reduced pancreatic RNase), the “catalytic efficiency relative to egg white QSOX1” value is on record as “two-fold higher”. Besides, the Km with reduced RNase (rRNase) [4] (substrate rRNase, 25° C., 50 mM phosphate buffer, pH 7.5, 1 mM EDTA) worked out at 60 µM; in series [6], 86 µM; in series [7], 4900 µM. Also, the kcat in the series with reduced RNase (rRNase) [4] (substrate rRNase, 25° C., 50 mM phosphate buffer, pH 7.5, 1 mM EDTA, thiols oxidized per minute) worked out at 22.33 s⁻¹; in series [6] (thiols oxidized per minute), 31.33 s⁻¹; in series [7] (thiols oxidized per minute) it was 29.33 s⁻¹. The “Is EDTA inhibitory?” value in series [5] is “No”. Moreover, in series [8], the “Is activity stimulated by added Ferrous iron?” value is recorded as “No”.
